T1: active human C1s (CompTech A104 C1s Enzyme) (human, UniProt P09871 16-688)
T1 construct: also called human active C1s; active C1s protein
T1 sequence (looked up): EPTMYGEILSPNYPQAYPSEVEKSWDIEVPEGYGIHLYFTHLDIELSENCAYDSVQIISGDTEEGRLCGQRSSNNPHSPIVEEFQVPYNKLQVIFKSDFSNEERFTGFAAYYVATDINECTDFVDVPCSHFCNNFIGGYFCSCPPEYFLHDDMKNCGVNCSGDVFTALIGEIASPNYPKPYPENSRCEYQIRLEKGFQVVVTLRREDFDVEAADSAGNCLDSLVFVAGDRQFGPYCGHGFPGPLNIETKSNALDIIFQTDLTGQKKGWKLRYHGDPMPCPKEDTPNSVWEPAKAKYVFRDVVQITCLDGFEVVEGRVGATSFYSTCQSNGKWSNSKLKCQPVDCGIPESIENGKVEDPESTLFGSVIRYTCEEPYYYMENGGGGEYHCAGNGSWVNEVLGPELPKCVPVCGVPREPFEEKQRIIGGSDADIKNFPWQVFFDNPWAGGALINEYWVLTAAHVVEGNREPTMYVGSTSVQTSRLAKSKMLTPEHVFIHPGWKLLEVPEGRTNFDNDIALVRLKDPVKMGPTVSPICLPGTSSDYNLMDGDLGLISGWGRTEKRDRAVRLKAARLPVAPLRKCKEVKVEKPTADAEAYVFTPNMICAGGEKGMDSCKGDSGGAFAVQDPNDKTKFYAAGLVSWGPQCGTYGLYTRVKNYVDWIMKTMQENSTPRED

T2: human C1s deletion mutant 3 (NHCΔ33) (human, UniProt P09871 16-404)
T2 construct: C-terminal 6xHis tag; also called human C1s (NHCΔ33); C1s (NHCΔ33)
T2 sequence: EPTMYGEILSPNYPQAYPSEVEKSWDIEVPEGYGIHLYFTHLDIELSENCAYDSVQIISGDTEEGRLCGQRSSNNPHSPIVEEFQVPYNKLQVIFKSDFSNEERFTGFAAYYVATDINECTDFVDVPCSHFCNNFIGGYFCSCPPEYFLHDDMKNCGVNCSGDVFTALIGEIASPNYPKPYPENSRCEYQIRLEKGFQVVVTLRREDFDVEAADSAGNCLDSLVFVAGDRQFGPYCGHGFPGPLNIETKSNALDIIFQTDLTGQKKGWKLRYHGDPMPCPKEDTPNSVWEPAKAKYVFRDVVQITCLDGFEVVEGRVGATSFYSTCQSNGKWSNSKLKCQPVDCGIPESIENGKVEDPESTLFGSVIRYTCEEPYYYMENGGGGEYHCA


Key:
[1] = molecular target: T1, active human C1s (CompTech A104 C1s …); assay: BLI (Octet RED96e), antibody on AHC biosensor; HuC1s Form: Active; R^2 0.9998
Protocol: Bio-Layer Interferometry technology was used for anti-C1s antibody affinity measurement and binding kinetics determinations with OCTET® RED96e system (Sartorius AG). Pre-hydrated Anti-Human IgG Fc Capture (AHC) biosensors were first equilibrated in 1×KB (Kinetic Buffer, 1×PBS pH 7.4+0.02% Tween-20+0.1% BSA) for 120 sec for the first baseline, followed by loading with […] anti-C1s antibody (2-7, FIG. 3A; 2-8, FIG. 3B; hz2-7(H1L2), FIG. 3C; hz2-8(H1L2 G80A/T82A, FIG. 3D) onto AHC biosensors for 240 sec. Then, the second baseline signal was established for 120 sec before association with various concentrations of active human C1s (CompTech A104) for 240-360 sec. At last, analyte was dissociated in 1×KB for 360 sec. Anti-C1s antibodies 2-7 and 2-8 were also analyzed against human C1s proenzyme (CompTech A103) (data not shown). Data analysis was carried out using OCTET® Data Analysis HT Software (Sartorius AG). KD, kₒₙ, koff and R² values were calculated for each antibody and target combination, as summarized in FIG. 3E showing high affinity binding with KD values in the low nanomolar to picomolar range.

[2] = molecular target: T2, human C1s deletion mutant 3 (NHCΔ33); assay: ELISA, C1s fragment coated on plate; hz2-8(H1L2 G80A/T82A), second of the two values
Protocol: ELISA was carried out by first coating 96-well plates with 200 ng/well of full-length or truncated C1s proteins overnight. The next morning, plates were blocked with SuperBlock T20 blocking buffer (Thermo Scientific 37536) for 1 h with gentle shaking. Then, various concentrations of anti-C1s antibodies diluted in SuperBlock T20 blocking buffer were added to the plates and incubated for 1 h with gentle shaking. Mouse IgG (Sigma-Aldrich 15381) and human IgG1 (BioXCell BP0297) were used as negative controls. The plates were washed before incubating with HRP conjugated secondary antibodies diluted in SuperBlock T20 blocking buffer (goat anti-mouse IgG (H+L) cross-adsorbed secondary antibody HRP (Invitrogen G-21040) or goat anti-human IgG antibody, HRP conjugate (Millipore AP309P)) for 1 h with gentle shaking. At last, the plates were washed and color developed with ELISA liquid HRP substrate (Sigma-Aldrich), followed by stopping the reaction with addition of 1M H₂SO₄ in the same volume as the ELISA liquid substrate. Bound antibody was measured by absorbance at OD₄₅₀ₙₘ.
Binding of various anti-C1s antibodies to human C1s (NHCΔ33) (SEQ ID NO: 111) was carried out by ELISA as described in Example 4, and results are shown in FIG. 6A.

Row | Kd [1] | koff [1] | kon [1] | EC50 [2] | Binder
1 | 0.24 nM | 7e-05 s⁻¹ | 290000 M⁻¹ s⁻¹ |  | Anti-C1s antibody hz2-7(H1L2) (antibody, V domains shown, Humanized, human IgG1 / kappa; also called hz2-7(1L2)) VH: EVQLLESGGGLVQPGGSLRLSCAASGFTFSNYFMNWVRQAPGKGLEWVSEIRLKFTNYATHYADSVKGRFTISRDDSKSTLYLQMNSLRAEDTAVYYCTRDYGSRNGYFDYWGQGTLVTVSS VL: DIVMTQTPLSLPVTPGEPASISCRSSKSLLHSNGNTFLYWFLQKPGQSPQLLIYRMSNLASGVPDRFSGSGSGTDFTLKISRVEAEDVGVYYCMQHLEYPYTFGGGTKLEIKR
2 | 1.2 nM | 0.00029 s⁻¹ | 240000 M⁻¹ s⁻¹ | 0.015 µg/mL | Anti-C1s antibody hz2-8 (H1L2 G80A/T82A) (antibody, V domains shown, Humanized variant with G80A and T82A in HC CDR2 (already in the entry), human IgG1 / kappa) VH: QVQLVQSGAEVKKPGASVKVSCKASGFNIKEYYMHWVRQAPEQGLEWMGWIDPENADAIYAQKFQGRVTITADTSTNTAYMELSSLRSEDTAVYYCARSRLFFAYWGQGTLVTVSS VL: DIQMTQSPKSLSASVGDRVTITCRASQDVRTALDWYQQKPGQSPKLLIYSASYRYSGVPSRFSGSGSGTDFTLTISSLQPEDFATYYCQQQYTTPYTFGQGTKLEIKR
